The target of the assay is T1, human VEGFA-121 (VEFG-A-121-His) (human, UniProt P15692-9 27-147).
T1 construct: Captured on an anti-His antibody surface; not shown: His tag
T1 sequence (looked up): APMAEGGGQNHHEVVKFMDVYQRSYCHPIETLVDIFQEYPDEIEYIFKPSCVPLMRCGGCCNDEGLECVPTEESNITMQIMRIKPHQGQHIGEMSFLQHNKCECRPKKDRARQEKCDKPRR
Put plainly: SPR (Biacore T200), VEGF-A-121-His captured on anti-His, antibody in solution, Langmuir 1:1. On the technique in general: Surface plasmon resonance follows binding to a sensor surface in real time, without labels.

From patent EP3150637A1 (F. Hoffmann-La Roche AG, dated 2017) come the findings set out here.

B1: Ang2VEGF-0477 (bispecific antibody, human IgG1, kappa)
light 1: QPGLTQPPSVSVAPGQTARITCGGNNIGSKSVHWYQQKPGQAPVLVVYDDSDRPSGIPERFSGSNSGNTATLTISRVEAGDEADYYCQVWDSSSDHYVFGTGTKVTVLRTVAAPSVFIFPPSDEKLKSGTASVVCLLNNFYPREAKVQWKVDNALQSGNSQESVTEQDSKDSTYSLSSTLTLSKADYEKHKVYACEVTHQGLSSPVTKSFNRGEC
heavy 1: not shown
light 2: DIQMTQSPSSLSASVGDRVTITCSASQDISNYLNWYQQKPGKAPKVLIYFTSSLHSGVPSRFSGSGSGTDFTLTISSLQPEDFATYYCQQYSTVPWTFGQGTKVEIKSSASTKGPSVFPLAPSSKSTSGGTAALGCLVKDYFPEPVTVSWNSGALTSGVHTFPAVLQSSGLYSLSSVVTVPSSSLGTQTYICNVNHKPSNTKVDKKVEPKSC
heavy 2: not shown
notes: Bivalent bispecific CrossMAb CH1-CL
In general, koff refers to the rate constant with which the complex falls apart. Lower therefore signals slow dissociation. B1 yielded a koff of 6.11e-05 s⁻¹.
